Data from patent US7094597.

Target: purified HLA MHC Class II molecules (human)
Assay: ELISA, biotinylated peptides on immobilized purified HLA class II molecules (FIG. 5)

For dnaJp1 peptide (…), the fold stronger binding than S1 and S6 peptides was greater than 100 fold.
